This data set in a line: protein stability index of a GFP-peptide fusion (yeast GPS) (PSI 1-4); higher = more stable; sorted into four equal gates, so the index is relative within each strain. The procedure, abridged: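 Peptides tiling yeast proteins in 17-residue segments were fused downstream of GFP, with Cherry expressed from the same plasmid. As a pooled library in yeast, mid-log cultures grown in leucine-free medium were sorted into four equal gates by GFP/Cherry fluorescence ratio. Gate plasmids were PCR-amplified and Illumina-sequenced, and barcodes linked reads to strains. Each peptide received a protein stability index equal to the sum of each gate's read frequency times its gate number.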

± gives the uncertainty stated by the source.

For DSRTTTGAYIANRVTDK [PRE3], the protein stability index runs as follows: (doa10∆) 2.99 ± 0.13; (pdr5∆) 3.29 ± 0.11; (san1∆) 2.89 ± 0.11; (ubr1∆) 3.08 ± 0.082.

On to DSSLQPEYFESPLQSSK [YMR129W/POM152], for which the protein stability index runs as follows: (doa10∆) 3.19 ± 0.2; (pdr5∆) 2.98 ± 0.12; (ubr1∆) 2.56 ± 0.13.

For the sequence DSSTTSSNSQQSTPQPD [ITC1], the protein stability index is, setting by setting: (doa10∆) 3.04 ± 0.046; (pdr5∆) 2.85 ± 0.048; (san1∆) 2.69 ± 0.044; (ubr1∆) 2.95 ± 0.038.

As for DSTVVYPLPKFPTTSHE [MED8], the protein stability index (doa10∆) stood at 2.75 ± 0.048, the protein stability index (pdr5∆) is 3.06 ± 0.051, the protein stability index (san1∆) worked out at 2.92 ± 0.046 and the protein stability index (ubr1∆) is 3.02 ± 0.054.

Regarding DSVAAIGIPVNKASLAQ [QCR2], the protein stability index by setting is: (doa10∆) 2.63 ± 0.056; (pdr5∆) 2.61 ± 0.052; (san1∆) 2.52 ± 0.081; (ubr1∆) 2.82 ± 0.042.

For the sequence DSYLILDTLPSEFDSRV [RPT5], the protein stability index stood at 2.83 ± 0.09 (doa10∆), 3.48 ± 0.12 (pdr5∆), 3.23 ± 0.062 (san1∆) and 3.1 ± 0.036 (ubr1∆).

On to DTFLPPPPPPPSNFEIN [PRP8], for which the protein stability index is, setting by setting: (doa10∆) 2.6 ± 0.039; (pdr5∆) 2.57 ± 0.039; (san1∆) 2.34 ± 0.04; (ubr1∆) 2.33 ± 0.032.

On to DTLLLLPTDGGLTSRLQ [POP4], for which the protein stability index by setting is: (doa10∆) 3.01 ± 0.14; (pdr5∆) 3.06 ± 0.15; (san1∆) 3.13 ± 0.095; (ubr1∆) 3.26 ± 0.13.

On to DTNAPVAATITSSQKEP [SRB8], for which the protein stability index reads like this: (doa10∆) 2.35 ± 0.14; (pdr5∆) 2.79 ± 0.13; (san1∆) 3.04 ± 0.086; (ubr1∆) 2.96 ± 0.11.

DTNNEADLMALENATWT [SNF12]: the protein stability index runs as follows: (doa10∆) 2.58 ± 0.074; (pdr5∆) 3.18 ± 0.11; (san1∆) 2.64 ± 0.087; (ubr1∆) 2.94 ± 0.09.

As to DTNSSKPKNTKENLSKS [SIR4], the protein stability index (doa10∆) worked out at 1.33 ± 0.21, the protein stability index (pdr5∆) stood at 1.56 ± 0.12 and the protein stability index (san1∆) was found to be 2.05 ± 0.15.

Take DTQTFSVLLQQLLTPGS [YGL172W/NUP49]: the protein stability index amounted to 1.31 ± 0.13 (doa10∆), 1.43 ± 0.095 (pdr5∆), 1.36 ± 0.1 (san1∆) and 1.48 ± 0.058 (ubr1∆).

Turning to DTSAEKDQIQAGKWFDP [SIR4], the protein stability index is, setting by setting: (doa10∆) 3.51 ± 0.12; (pdr5∆) 3.57 ± 0.14; (san1∆) 3.38 ± 0.12; (ubr1∆) 3.38 ± 0.18.

In the case of DTSYKIDGKTVSYKDYS [SMC1], the protein stability index runs as follows: (doa10∆) 2.6 ± 0.049; (pdr5∆) 2.79 ± 0.042; (san1∆) 2.58 ± 0.046; (ubr1∆) 2.95 ± 0.04.

Regarding DTVNSALENDVATNIVN [YML103C/NUP188], the protein stability index was found to be 2.87 ± 0.051 (doa10∆), 3.14 ± 0.064 (pdr5∆), 3.09 ± 0.046 (san1∆) and 3.19 ± 0.055 (ubr1∆).

On to DTYRTLMEEIESLKKEL [YIL149C/MLP2], for which the protein stability index is, setting by setting: (doa10∆) 3.16 ± 0.1; (pdr5∆) 3.36 ± 0.092; (san1∆) 3.4 ± 0.07; (ubr1∆) 3.35 ± 0.068.

Turning to DVIAWKNVLANSIWGSS [ITC1], the protein stability index runs as follows: (doa10∆) 2.83 ± 0.14; (pdr5∆) 2.95 ± 0.088; (san1∆) 3.49 ± 0.12; (ubr1∆) 3.28 ± 0.072.

With DVKTAEEASQLIEYMEN [NUT1], the protein stability index (doa10∆) was found to be 2.91 ± 0.086, the protein stability index (pdr5∆) came to 3.04 ± 0.099, the protein stability index (san1∆) is 3.05 ± 0.08 and the protein stability index (ubr1∆) came out at 3.1 ± 0.064.

With DVMDELITSSARKELPI [SIR3], the protein stability index worked out at 2.26 ± 0.13 (pdr5∆), 2.7 ± 0.27 (san1∆) and 2.42 ± 0.18 (ubr1∆).

Regarding DVQVDAEEKREAVIDEK [ITC1], the protein stability index by setting is: (pdr5∆) 2.32 ± 0.18; (ubr1∆) 2.6 ± 0.13.

On to DVRRLKKNVWRSINNLI [BRN1], for which the protein stability index worked out at 2.62 ± 0.29 (doa10∆), 1.9 ± 0.11 (pdr5∆), 1.06 ± 0.15 (san1∆) and 1.1 ± 0.063 (ubr1∆).

For the sequence DVTPADDLKQKKEELVE [RPO31], the protein stability index stood at 3.12 ± 0.16 (doa10∆), 3.25 ± 0.093 (pdr5∆), 3.08 ± 0.15 (san1∆) and 3.24 ± 0.12 (ubr1∆).

For DWFTYSYFYRRIHVNPS [BRR2], the protein stability index runs as follows: (doa10∆) 1.86 ± 0.047; (pdr5∆) 1.28 ± 0.038; (san1∆) 1.53 ± 0.057; (ubr1∆) 1.52 ± 0.029.

Consider DYMYENGKLTSANERLF [YML031W/NDC1], for which the protein stability index runs as follows: (doa10∆) 3.37 ± 0.17; (pdr5∆) 3.28 ± 0.11; (san1∆) 3.1 ± 0.11; (ubr1∆) 3.23 ± 0.095.

For the sequence DYPSTSLDIRHDFIKGL [NUT1], the protein stability index is, setting by setting: (doa10∆) 2.9 ± 0.14; (pdr5∆) 2.88 ± 0.076; (san1∆) 3.14 ± 0.057; (ubr1∆) 2.56 ± 0.062.

For the origin of these results see the supplement of paper PMC9732359.
